Source: patent publication US20230190879A1 (JIANGSU HENGRUI PHARMACEUTICALS, published 2023)
Where two headings read alike, the source gives them in different places. *1 amine or outer side, *2 acyl side, *3 side chain or, on linkers, in order; H or OH if unused. Where no end group is shown, it is not given here. Side-chain parts run from the residue outwards. [ ]: non-standard residue; d: D form. γGlu = O=C(O)[C@H](CCC(=O)[*:2])N[*:1]; AEEA = NCCOCCOCC(=O)O; Aib = CC(C)(N)C(=O)O

T1: human glucose-dependent insulinotropic polypeptide receptor (GIP receptor) (human, UniProt P48546 22-466)
T1 sequence (looked up): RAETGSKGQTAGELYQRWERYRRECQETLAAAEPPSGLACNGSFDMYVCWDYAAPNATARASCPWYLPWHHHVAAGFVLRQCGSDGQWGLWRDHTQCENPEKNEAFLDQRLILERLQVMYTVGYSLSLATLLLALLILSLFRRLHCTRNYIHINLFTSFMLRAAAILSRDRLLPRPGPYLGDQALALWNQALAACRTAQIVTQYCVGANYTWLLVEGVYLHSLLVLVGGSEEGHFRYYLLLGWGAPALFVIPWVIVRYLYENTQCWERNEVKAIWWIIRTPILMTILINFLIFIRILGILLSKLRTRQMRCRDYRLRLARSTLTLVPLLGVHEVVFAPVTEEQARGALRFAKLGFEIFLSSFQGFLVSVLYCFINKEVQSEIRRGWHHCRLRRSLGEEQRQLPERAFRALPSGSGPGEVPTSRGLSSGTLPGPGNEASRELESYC


Tests used:
Assay in all cases: cell-based or functional assay
[1] = biological target: human glucagon-like peptide-1 receptor (GLP-1R) (human) (UniProt P43220)
human glucagon-like peptide-1 receptor (GLP-1R) (human), sequence (P43220 24-463): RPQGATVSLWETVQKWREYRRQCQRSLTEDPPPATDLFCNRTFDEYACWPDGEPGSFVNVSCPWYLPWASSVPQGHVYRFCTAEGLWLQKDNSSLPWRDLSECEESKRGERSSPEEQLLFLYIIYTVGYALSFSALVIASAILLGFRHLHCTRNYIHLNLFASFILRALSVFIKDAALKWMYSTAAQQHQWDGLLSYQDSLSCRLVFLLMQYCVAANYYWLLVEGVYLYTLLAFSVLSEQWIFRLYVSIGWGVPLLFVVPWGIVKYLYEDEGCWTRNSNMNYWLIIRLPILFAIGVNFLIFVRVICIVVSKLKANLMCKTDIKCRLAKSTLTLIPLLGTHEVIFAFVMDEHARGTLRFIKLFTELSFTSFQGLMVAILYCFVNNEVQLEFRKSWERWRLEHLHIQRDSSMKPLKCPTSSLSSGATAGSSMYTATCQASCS

[2] = biological target: human glucose-dependent insulinotropic polypeptide receptor (GIP receptor) (human) (UniProt P48546)
[3] = biological target: human glucagon-like peptide-1 receptor (GLP-1R) (human) (UniProt P43220); remark: listed apart in the source
[4] = biological target: human glucose-dependent insulinotropic polypeptide receptor (GIP receptor) (human) (UniProt P48546); remark: listed apart in the source
[5] = biological target: T2, human glucagon-like peptide-1 receptor (GLP-1R) (human, UniProt P43220 24-463)
T2 sequence (P43220 24-463): as above

[6] = biological target: T1, human glucose-dependent insulinotropic …
[7] = biological target: T2, human glucagon-like peptide-1 receptor …; remark: listed apart in the source
[8] = biological target: T1, human glucose-dependent insulinotropic …; remark: listed apart in the source

Molecule | Human GLP-1R activity (EC50 nM); cAMP HTRF in CHO-K1/GLP-1R/CRE-luc cells [5] | Human GIP receptor activity (EC50 nM); cAMP HTRF in CHO-K1 cells transfected with hGIP receptor [6] | other results
LY3298176 (peptide) |  |  | Human GLP-1R activity (EC50 nM); cAMP HTRF in CHO-K1/GLP-1R/CRE-luc cells [1]: 0.13 nM; Human GIP receptor activity (EC50 nM); cAMP HTRF in CHO-K1 cells transfected with hGIP receptor [2]: 0.056 nM; Human GLP-1R activity (EC50 nM); cAMP HTRF in CHO-K1/GLP-1R/CRE-luc cells [3]: 0.078 nM; Human GIP receptor activity (EC50 nM); cAMP HTRF in CHO-K1 cells transfected with hGIP receptor [4]: 0.031 nM
Natural GIP (from UniProt P09681 52-93) (ligand) |  |  | Human GIP receptor activity (EC50 nM); cAMP HTRF in CHO-K1 cells transfected with hGIP receptor [4]: 0.006 nM
Y[Aib]EGTFTSDYSIYK([AEEA-AEEA-γGlu-C20‑OH])ERIAAQEFVNWLIAGGPSSGAPPPS-NH2 [compound 13#] | 0.017 nM | 0.13 nM | 
Y[Aib]EGTFTSDYSIYK([AEEA-AEEA-γGlu-C20‑OH])EKIAAQEFINWLLAGGPSSGAPPPS-NH2 [compound 16#] | 0.029 nM | 0.095 nM | 
Y[Aib]EGTFTSDYSIYLEK([AEEA-AEEA-γGlu-C20‑OH])IAAQEFINWLIAGGPSSGAPPPS-NH2 [compound 10#] | 0.065 nM | 0.056 nM | 
Y[Aib]EGTFTSDYSIYK([AEEA-AEEA-γGlu-C20‑OH])EKIAAQEFVNWLIAGGPSSGAPPPS-NH2 [compound 12#] | 0.03 nM | 0.17 nM | 
Y[Aib]EGTFTSDYSIYLEK([AEEA-AEEA-γGlu-C20‑OH])IAAQEFVNWLIAGGPSSGAPPPS-NH2 [compound 9#] | 0.049 nM | 0.04 nM | 
Y[Aib]EGTFTSDYSIYK([AEEA-AEEA-γGlu-C20‑OH])EKIAAQEFVNWLLAGGPSSGAPPPS-NH2 [compound 18#] | 0.013 nM | 0.06 nM | 
Y[Aib]EGTFTSDYSIYK([AEEA-AEEA-γGlu-C20‑OH])DKIAAQEFVNWLLAGGPSSGAPPPS-NH2 [compound 7#] |  |  | Human GLP-1R activity (EC50 nM); cAMP HTRF in CHO-K1/GLP-1R/CRE-luc cells [7]: 0.021 nM; Human GIP receptor activity (EC50 nM); cAMP HTRF in CHO-K1 cells transfected with hGIP receptor [8]: 0.11 nM
Y[Aib]EGTFTSDYSIYK([AEEA-AEEA-γGlu-C20‑OH])EKIAAQEFINWLIAGGPSSGAPPPS-NH2 [compound 14#] | 0.013 nM | 0.13 nM | 
Y[Aib]EGTFTSDYSIYK([AEEA-AEEA-γGlu-C20‑OH])ERIAAQEFVNWLLAGGPSSGAPPPS-NH2 [compound 17#] | 0.022 nM | 0.11 nM | 
Y[Aib]EGTFTSDYSIYK([AEEA-AEEA-γGlu-C20‑OH])ERIAAQEFINWLIAGGPSSGAPPPS-NH2 [compound 15#] | 0.015 nM | 0.23 nM | 
